# According to US20220080036A1 (VANDERBILT UNIVERSITY, published 2022):
# T1: IsdA (iron-regulated surface determinant protein A), recombinant (Staphylococcus aureus, UniProt P0C1S5 58-316)
# T1 construct: also called recombinant IsdA; Isd antigen
# T1 chain: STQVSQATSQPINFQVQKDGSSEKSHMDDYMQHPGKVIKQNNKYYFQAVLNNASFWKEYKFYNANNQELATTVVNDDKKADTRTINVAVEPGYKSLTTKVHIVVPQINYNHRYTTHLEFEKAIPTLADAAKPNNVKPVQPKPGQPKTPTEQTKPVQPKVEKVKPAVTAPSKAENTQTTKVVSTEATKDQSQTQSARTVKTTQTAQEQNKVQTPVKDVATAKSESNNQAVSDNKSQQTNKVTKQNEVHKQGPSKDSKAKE
# Tests used:
# Experiment in all cases: ELISA on coated recombinant antigen, half-maximal binding
# [1] = target: T1, IsdA (iron-regulated surface …)
# [2] = target: T2, IsdB (iron-regulated surface determinant protein B), recombinant (Staphylococcus aureus, UniProt A6QG30 41-609)
# T2 construct: also called recombinant IsdB
# [3] = target: T3, IsdH (iron-regulated surface determinant protein H), recombinant (Staphylococcus aureus)
# T3 construct: also called recombinant IsdH
# T3 sequence (Q2FG07 41-864): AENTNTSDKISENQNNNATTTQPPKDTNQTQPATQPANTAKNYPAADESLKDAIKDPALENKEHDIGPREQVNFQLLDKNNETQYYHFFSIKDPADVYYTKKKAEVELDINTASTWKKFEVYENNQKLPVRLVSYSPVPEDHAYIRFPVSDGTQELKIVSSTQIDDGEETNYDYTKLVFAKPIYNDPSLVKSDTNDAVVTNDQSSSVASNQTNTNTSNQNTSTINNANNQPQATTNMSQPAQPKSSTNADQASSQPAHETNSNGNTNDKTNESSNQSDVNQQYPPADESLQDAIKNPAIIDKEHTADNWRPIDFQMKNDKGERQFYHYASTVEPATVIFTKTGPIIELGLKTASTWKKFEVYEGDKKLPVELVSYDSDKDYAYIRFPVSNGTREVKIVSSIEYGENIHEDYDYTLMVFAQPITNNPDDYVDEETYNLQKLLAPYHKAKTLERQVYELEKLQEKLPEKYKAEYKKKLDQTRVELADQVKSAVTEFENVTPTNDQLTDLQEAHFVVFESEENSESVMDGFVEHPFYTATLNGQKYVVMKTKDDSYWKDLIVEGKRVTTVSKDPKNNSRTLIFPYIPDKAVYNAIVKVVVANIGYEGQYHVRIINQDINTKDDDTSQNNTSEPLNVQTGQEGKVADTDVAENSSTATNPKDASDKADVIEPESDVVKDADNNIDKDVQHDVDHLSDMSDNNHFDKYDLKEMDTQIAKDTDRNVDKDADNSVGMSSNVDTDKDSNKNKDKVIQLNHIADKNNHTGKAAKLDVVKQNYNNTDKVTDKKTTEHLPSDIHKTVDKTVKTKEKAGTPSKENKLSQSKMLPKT
# T2 sequence (A6QG30 41-609 limits assumed): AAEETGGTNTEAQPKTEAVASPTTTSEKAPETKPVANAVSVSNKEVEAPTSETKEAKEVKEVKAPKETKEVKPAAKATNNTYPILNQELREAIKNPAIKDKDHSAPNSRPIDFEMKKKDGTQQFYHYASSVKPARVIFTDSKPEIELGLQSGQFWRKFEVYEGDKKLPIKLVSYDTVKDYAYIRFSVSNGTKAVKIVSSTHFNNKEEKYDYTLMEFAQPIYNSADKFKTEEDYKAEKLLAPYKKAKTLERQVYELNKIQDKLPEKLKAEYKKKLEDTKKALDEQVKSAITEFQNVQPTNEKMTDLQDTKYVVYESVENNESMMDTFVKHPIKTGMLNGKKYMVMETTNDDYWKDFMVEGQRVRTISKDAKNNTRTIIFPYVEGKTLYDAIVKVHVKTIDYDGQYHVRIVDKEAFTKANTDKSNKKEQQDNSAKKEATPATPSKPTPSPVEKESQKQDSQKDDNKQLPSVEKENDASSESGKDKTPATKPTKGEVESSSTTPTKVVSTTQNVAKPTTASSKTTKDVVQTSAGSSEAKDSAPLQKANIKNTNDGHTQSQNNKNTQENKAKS
Binder,EC50 [1] [ng/mL],EC50 [2] [ng/mL],EC50 [3] [ng/mL]
"STAU-307 (antibody, V domains shown) VH: QVQLVQSGAEVKKTGSSVKVSCTASGATFNTNDLMWVRQAPGQGLEWMGGIVPVFGRPKYAKKFHGRLIISADEFTTTFYMELTSLTFDDTAIYYCARSGSTESPIQHIDFWGQGTLVTVSS VL: SYVLTQPPSVSVAPGQTATITCGGDNIATFSVHWYRQKPGQAPVLVVYDDLDRASGIPARFSGSNSGNTATLTISRVEPGDEADYFCQVWEISSDEYVFGPGTSVTVL",10,0.28,0.01
"STAU-407 (antibody, V domains shown) VH: QLQLQESGPGLVKPSETLSLTCSVSGGSISRTYYYWDWIRQPPGKGLEWIGSVYYSGSTYYNPSLKSRVTMSVDTSKNLFSLKLSSVTAADTAVYYCASHESWQQLISWGQGTLVTVSS VL: QAVLTQPSSLSASPGASASLTCTLRSGINVGIYRIYWYQQKPGSPPQYLLRYKSDSDKHQGSGVPSRFSGSKDASANAGILLISGLQSEDEADYYCMIWHSSAVAFGGGTKLTVL",1600,,3100
"STAU-281 (antibody, V domains shown) VH: QVQLVQSGAEVKRPGSSVRVSCKDSGDSFRRYVINWVRQAPGQGLEWMGGIIPIFDKAKSVQKFQDRLTITADESTSTSYMELSSLTSEDTAVYYCARKEDGRRDDVFDIWGQGTLVTVSS VL: EIVMTQSPATLSVSLGERATLSCRASHSVGSSLAWYQQKPGLAPRLLIYGVSTRATGIPARFSGSGSATEFTLTISSLQSEDLAAYHCQQYDNWPFTFGQGTKLEIK",,2,2.7
"STAU-328 (antibody, V domains shown) VH: QVQLQQWGAGLLKPSETLSLTCAVYGGSFSGYYWSWIRQPPGKGLEWIGEINHSGSTNYNPSLKSRVTISVDTSKNQFSLKLSSVTAADTAVYYCARDVGDRYYFDYWGQGTLVTVSS VL: QSALTQPASVSGSPGQSITISCTGTSSDVGSYNLVSWYQQHPGKAPKLMIYEGSKRPSGVSNRFSGSKSGNTASLTISGLQAEDEADYYCCSYAGSSTFVVFGGGTKLTVL",,80,60
"STAU-389 (antibody, V domains shown) VH: QVQLVQSGAEVKQSGSSLKVSCKVSGGNLRSYGISWVRQAPGQGLEWMGVIIPIFGAPTYAQKFQGRVTFVADDGNNVVFMELSSLRSEDTAVYYCARDWPSITVAVDAINFAMDVWGQGTLVTVSS VL: QSALTQPRSVSGSPGQSVTISCTGTNNDVGSYDHVSWYQQHPGKAPKFIIYDVSTRPSGVPDRFSGSKSDNTASLTISGLQAEDEADYYCCSFAGSYTYVFGTGTTVTVL",,130,340
"STAU-239 (antibody, V domains shown) VH: QVQLVQSGAEVKKPGSSVKVSCRASGGPFNTYVITWVRQAPGQGLEWMGGIVPVFNTSHSAQKFQGRVKISADTSTNTVYMELTSLTFEDTAVYFCARDGAAAPLNWYDPWGQGTLVTVSS VL: SYVLTQPPSVSLAPGQTATLTCGGNNIGSKSVHWYQKKPGQAPVLVVYDVRDRPSGIPERFSGSSSENTATLTLSRVEAEDEADYYCQVWESTTSHVIFGGGTKLTVL",70,1,
"STAU-229 (antibody, V domains shown) VH: EVQLVQSGAEVKKPGATMKISCKVSGYPFTDYYMHWVQQAPGKGLEWMGLIDPEDGETNYAEKFQGRVTITADTSTDTVYMELSSLRSEDTAVYFCAKPHCSSRTCQRVSGYYFGMDVWGQGTLVTVSS VL: QSALTQPPSASGSPGQSVTISCTGSSNDVGDYNFVSWYQQHPGKPPKLMIYEVTKRPSGVPDRFFGSKSGNTASLTVSGLQADDEADYYCSSYAGGNSVVFGGGTKLTVL",700,10,
"STAU-221 (antibody, V domains shown) VH: QVTLRESGPALVKPTQTLTLTCTFSGFSLTSSGMCVSWIRQPPGKALEWLALIDWDDDKYYITSLKTRLIISKDTSKNQVVLTMTNMDPVDTATYYCARTQSGYSGYYVDYWGQGTLVTVSS VL: not shown",30,1900,
"STAU-218 (antibody, V domains shown) VH: QVTLKESGPVVVKPTETLTLTCTVSDVSLRNVQMGVSWIRQPPGKALEWLAHIFSHDEKAYVTSLENRLTISRDTSNSQVVLTMTNMDPVDTGTYYCARIRSTSGEEEDPFAFWGQGTLVTVSS VL: DIQMTQSPSSLSASVGDRVTITCRASQSVTTWLAWYQQKPGKAPKLLIYSASSLESGVPSRFSGSGSGTDFTLTISNLQPDDFATYYCQQYRFYWTFGQGTKVESK",80,4100,
"STAU-201 (antibody, V domains shown) VH: QVQLVQSGPEVKKPGASVKVSCKASGYTFTNYGLTWVRQAPGKGLEWIGWISPYTGRAKFALKFQGRFTLTTDTSTTTAYMEVRSLKSDDSAVYYCAREGIKDASAFDFWGQGTLVTVSS VL: QSALTQPASVSGSPGQSITISCTGTGSDIGGYNHVSWYHHYPGKAPKLLIFGVTHRPSGVSDRFSGSKSGVTAFLTISGLQAEDEADYYCSSYTDNTSWVFGGGTKVTVL",260,9500,
"STAU-399 (antibody, V domains shown) VH: QVQLVQSGAEVKKPGSSLKVSCKVSGGNLRSYGISWVRQAPGQGLEWMGVIIPIFGTPTYAQKFQGRVTLAADDSNNIVFMELSSLRSEDTAVYYCARDWPSITVAVDATNYGMDVWGQGTLVTVSS VL: QSALTQPRSVSGSPGQSVTISCTGTSNDVGYYDHVSWYQQHPGKAPKFIIYDVSKRPSGVPDRFSGSKSDNTASLTISGLQAEDEADYYCCSFAGSYTYVFGTGTKVTVL",8700,530,950
"STAU-299 (antibody, V domains shown) VH: QVTLRESGPALVKPTETVTLTCTFSGFSLSTSGMCVTWLRQPPGKALEWLALIDWEDDKYYSTSLKTRFTISKDTSKNQVVLTMTNMDPVDTATYYCARTPTYRGAFDMWGQGTLVTVSS VL: not shown",220,12700,
"STAU-402 (antibody, V domains shown) VH: QLQLQESGPGLVKPSETLSLTCTVSGGSISSSSYYWGWIRQPPGKGLEWIGSIYYSGSTYYNPSLKSRVTISVDTSKNQFSLKLSSVTAADTAVYYCARPNSSGWSYYFDYWGQGTLVTVSS VL: QSVLTQPPSVSGAPGQRVTISCTGTSSNIGADYDVHWYQQLPGTAPKLLIYGNINRPSGVPDRFSGSRSGTSASLAITGLQADDEADYYCQSYDSSLSGSVVFGGGTKLTVL",8200,3400,
"STAU-401 (antibody, V domains shown) VH: QVQLVQSGPEARKPGTSVKVSCKTSGYTFSSYGIAWVRQAPGQGLEWMGWISGYSDYTIYAQRLQGRVSMTTDPYTSTAYMELRSLRPDDTAVYYCATLSFGELVENKLDFWGQGTLVTVSS VL: QSVLTQPPSVSGAPGQRVTISCTGTSSNIGADYAVHWYQQLPGTAPKLLIYGTINRPSGVPDRFSGSRSGTSASLAITGLQADDEADYYCQSYDSSLSGSVVFGGGTKLTVL",25100,3700,
"STAU-280 (antibody, V domains shown) VH: EVQLVESGGGLVQTGGSLRLSCAASGFTFSRYNMNWVRQAPGKGLEWVSFISATSSSIYYADSVKGRFTISRDNAKNSLDLQMNSLRDEDTAVYFCVREDAAIFGVGSWFDPWGQGTLVTVSS VL: EIVMTQSPATLSVSPGERATLSCRASQSVSSNLAWYQQKPGQAPRLLIYGASTRATGIPARFSGSGSGTEFTLTISSLQSEDFAVYFCQEYNDWPLYTFGQGTKLEIK",52100,7600,
"STAU-139 (antibody, V domains shown) VH: EVQLVQSGAEVKKPGESLKISCKGSGYSFTSYWIGWVRQMPGKGLEWMGIIYPGDSDTRYSPSFQGQVTISADKSISTAYLQWSSLKASDTAMYYCARPPGLRGDAFDIWGQGTLVTVSS VL: QSALTQPPSASGSPGQSVTISCTGTSSDVGGYNYVSWYQQHPGKAPKLMIYEVSKRPSGVPDRFSGSKSGNTASLTVSGLQAEDEADYYCSSYAGSNNLVFGGGTKLTVL",,,2700
"STAU-64 (antibody, V domains shown) VH: EVQLVESGGGLVKPGGSLRLSCAASGFSFSYYSMNWVRQAPGKGLEWISSISSSGEYIYYADSVKGRFTISRDNAENSLYLQMNSLRAEDTAVYYCAKVVSQQSLDYWGQGTLVTVSS VL: DIVMTQSPSSLSVSVGDRVTITCRASQSISTYLNWYQQKPGKAPKLLISGGSNLQSGVPSRFSGSGSGTDFTLTIISLQPEDFATYYCQQSYSTRYSFGQGTKLEIK",,140,
